In one experiment the target is Hepatitis A virus (HAV). Briefly: cell-based or functional assay.
The target of the next experiment is Rotavirus. Briefly: cell-based or functional assay.
The target of experiment [1] is Human infectious Norovirus (genotype GII-4). Briefly: Norovirus captured on Con A-bound sepharose 4B resin, Ct values by RT-PCR.
For experiment [2] the target is unchanged. Put plainly: BLI, antibody and Con A each immobilized on ARG2 chips, same concentration of Norovirus. On the technique in general: BLI is a label-free optical method that tracks binding on a fibre tip over time.

This note sets out measurements from patent US20170285011A1.

Take “concanavalin A (Con A, sigma) (from UniProt P02866 30-281)”: the concentration of HAV (copy number by RT-PCR) in FRhk-4 cells, Con A plus HAV group with Hepatitis A virus (HAV) came out at 27000 unit. Further, in the experiment with Rotavirus, the concentration of Rotavirus (copy number by RT-PCR) in MA-104 cells, Con A plus Rotavirus group was 64000 unit. This substance gave a collection rate in experiment [1] of 94.1%. Moreover, the fold stronger binding than the antibody in experiment [2] came out at 3 fold.
